{
  "source": "patent US20230348630A1",
  "binders": {"B1": {"name": "anti-CD3D&E antibody D1E9 scFv displayed on phage (scFv, part only; not given: scFv linker, phage coat fusion, V domains shown, not shown: another chain or arm of the molecule; large carriers; small tags and cut ends)", "VH": "EVQLVESGGGLVQPGRSLRLSCAASGFTFDDFAMHWVRQAPGKGLEWVSGITWNSGSVGYADSVKGRFTISRDNAKKSLYLQMNSLRAEDTALYYCAKDRSGYGHYYYGMDVWGQGTTVTVAS", "VL": "EIVMTQSPATLSVSPGERATLSCRASTSVSHNVAWYQQKPGQAPRLLIYGASTKVTGIPARFSGSGSGTEFTLTISSLQSEDFAVYYCQHYINWPLTFGGGTKVEIK"}, "B2": {"name": "anti-CD3D&E antibody 7-1A12 scFv displayed on phage (scFv, part only; not given: scFv linker, part only)", "scFv, part": "EVQLVESGGGLVQPGRSLRLSCAASGFTFSDYTMHWVRQAPGKGLEWVSGISWNTGTIGYADSVKGRFTISRDNAKKSLYLQMNSLRAEDTALYYCAKDNSGYGHYYFGMDVWGQGTTVTVASEIVMTQSPATLSVSPGERATLSCRASQSVSRNVAWYQQKPGQAPRLLIYGASTRQTGIPARFSGSGSGTEFTLTISSLQSEDFAVYYCQSYINWPLQFGGGTKVEIK"}, "B3": {"name": "anti-BCMA antibody A6-3 scFv displayed on phage (scFv, part only; not given: scFv linker, phage coat fusion, V domains shown, not shown: another chain or arm of the molecule; large carriers; small tags and cut ends)", "VH": "QVQLVQSGAEVKKPGASVKVSCKASGYTFTNHIIHWVRQAPGQGLEWMGYINPYPGYHGYNDKFSGRATMTSDTSTSTVYMELSSLRSEDTAVYYCARDGYYRDQDVLDYWGQGTLVTVSS", "VL": "DIQMTQSPSSLSASVGDRVTITCKASQDISQYLNWYQQKPGKAPKLLIYYTSGLHPGVPSRFSGSGSGTDFTFTISSLEPEDIATYYCQQGYALPWTFGQGTKVEIK"}},
  "key": {"[1]": {"biological_target": "CD3D&E protein (Cat #: CT038-H2508H, Sino Biological) (human) (UniProt P04234)", "sequence (P04234 22-105, chain 1 of 2)": "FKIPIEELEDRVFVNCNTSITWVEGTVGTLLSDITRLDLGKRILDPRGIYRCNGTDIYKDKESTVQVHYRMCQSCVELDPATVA", "sequence (P07766 23-126, chain 2 of 2, further chain)": "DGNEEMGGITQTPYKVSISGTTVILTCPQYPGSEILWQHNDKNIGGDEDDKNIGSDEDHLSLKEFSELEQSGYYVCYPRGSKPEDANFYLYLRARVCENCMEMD", "test": "phage ELISA on CD3D&E protein, detection with HRP anti-M13 antibody"}, "[2]": {"biological_target": "BCMA-his protein (Cat #: BCA-H522y, ACRO) (human) (UniProt Q02223)", "sequence (Q02223 1-54 limits assumed)": "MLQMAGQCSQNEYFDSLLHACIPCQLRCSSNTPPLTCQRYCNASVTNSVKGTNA", "test": "phage ELISA on BCMA-his protein, detection with HRP anti-M13 antibody"}},
  "data": [
    {"binder": "B1", "values": [
      {"measurement": "EC50 (read off the curve)", "setting": "[1]", "result": 20, "unit": "mg/L"}
    ]},
    {"binder": "B2", "values": [
      {"measurement": "EC50 (read off the curve)", "setting": "[1]", "result": 4, "unit": "mg/L"}
    ]},
    {"binder": "B3", "values": [
      {"measurement": "EC50 (read off the curve)", "setting": "[2]", "result": 1, "unit": "mg/L"}
    ]}
  ]
}
